Measurements reported in patent publication US20230036060A1, “DUAL-CONTROLLED DRUG AND PHOTOACTIVATABLE SYSTEM FOR SPATIOTEMPORAL CONTROL OF CELL THERAPY” (THE REGENTS OF THE UNIVERSITY OF CALIFORNIA, priority 2019, published 2023).

Tests used:
[1] = target: CIB1-CreC(106-343) (Arabidopsis thaliana) (UniProt Q8GY61); experiment: cell-based or functional assay
NLS-pMag-CreC = experiment: cell-based or functional assay
NLS-pMag-CreC, sequence (chain, as listed by the source): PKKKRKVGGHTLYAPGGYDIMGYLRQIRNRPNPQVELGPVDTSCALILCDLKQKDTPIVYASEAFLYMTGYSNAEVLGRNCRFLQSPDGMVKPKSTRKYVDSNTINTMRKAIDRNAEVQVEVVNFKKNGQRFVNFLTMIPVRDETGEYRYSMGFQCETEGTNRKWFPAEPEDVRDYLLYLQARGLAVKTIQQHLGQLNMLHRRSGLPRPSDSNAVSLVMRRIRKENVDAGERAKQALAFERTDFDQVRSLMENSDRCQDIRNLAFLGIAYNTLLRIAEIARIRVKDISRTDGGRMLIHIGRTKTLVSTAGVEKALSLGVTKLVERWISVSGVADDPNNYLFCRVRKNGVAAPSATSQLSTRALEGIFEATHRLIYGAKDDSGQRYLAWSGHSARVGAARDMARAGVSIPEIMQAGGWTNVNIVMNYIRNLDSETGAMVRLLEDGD

CreN(19-59)-nMag-NLS, sequence (P06956 19-59): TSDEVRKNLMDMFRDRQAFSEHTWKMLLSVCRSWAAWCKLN

Row | fold increase in Cre-loxP recombination, PA-Cre-C, Light against Dark [1] [fold] | normalized % recombined (EGFP+) EGFP Reporter HEK293T cells, PA-Cre-C, Light (30 W/m2, 30 s) [1] [%] | fold increase in Cre-loxP recombination, PA-Cre-M, Light against Dark (NLS-pMag-CreC) [fold] | fold increase in recombined PA-Cre-M+ CAR Reporter Jurkat T cells, Light against Dark (NLS-pMag-CreC) [fold] | normalized % recombined (CAR-EGFP+) PA-Cre-M+ CAR Reporter Jurkat T cells, Dark (NLS-pMag-CreC) [%] | normalized % recombined (CAR-EGFP+) PA-Cre-M+ CAR Reporter Jurkat T cells, Light, Protocol E (NLS-pMag-CreC) [%] | normalized % recombined (EGFP+) EGFP Reporter HEK293T cells, PA-Cre-M, Light (30 W/m2, 30 s) (NLS-pMag-CreC) [%] | normalized % recombined EGFP Reporter HEK293T cells, PA-Cre-M, Ambient light (NLS-pMag-CreC) [%] | normalized % recombined EGFP Reporter HEK293T cells, PA-Cre-M, Ambient, Protocol B experiment (NLS-pMag-CreC) [%] | normalized % recombined EGFP Reporter HEK293T cells, PA-Cre-M, Dark (pulsatile protocol experiment) (NLS-pMag-CreC) [%] | normalized % recombined EGFP Reporter HEK293T cells, PA-Cre-M, Dark (spontaneous background) (NLS-pMag-CreC) [%] | normalized % recombined EGFP Reporter HEK293T cells, PA-Cre-M, Dark, Protocol B experiment (NLS-pMag-CreC) [%] | normalized % recombined EGFP Reporter HEK293T cells, PA-Cre-M, Light, Protocol B (NLS-pMag-CreC) [%] | Substance
1 | 2.1 | 12.1 |  |  |  |  |  |  |  |  |  |  |  | CRY2(L348F)-CreN(19-104) (from UniProt Q96524 1-612; P06956 19-104)
2 |  |  | 3.4 | 4.1 | 5.2 | 21.2 | 90.8 | 28.9 | 45.2 | 20.4 | 26.7 | 32.9 | 84.8 | CreN(19-59)-nMag-NLS (from UniProt P06956 19-59)
